# From PMC4251497 (2014)
# Biological target: the molecule itself
# Assay: analytical ultracentrifugation
row,Protein,Kd
1,Phenylalanine hydroxylase regulatory domain (RDPheH25-117) 25-117 (protein) IEDNSNQNGAISLIFSLKEEVGALAKVLRLFEENDINLTHIESRPSRLNKDEYEFFTYLDKRTKPVLGSIIKSLRNDIGATVHELSRDKEKNT,46 µM
2,Phenylalanine hydroxylase regulatory domain (RDPheH) 1-117 (protein) MAAVVLENGVLSRKLSDFGQETSYIEDNSNQNGAISLIFSLKEEVGALAKVLRLFEENDINLTHIESRPSRLNKDEYEFFTYLDKRTKPVLGSIIKSLRNDIGATVHELSRDKEKNT,46 µM
